Data on 11 molecules can be found in patent publication US20210130436A1 (published 2021).

The target in one experiment is T1, human CTLA4 on CHO cells (human, UniProt P16410 36-223).
T1 construct: whole, on cells; CHO cells stably expressing CTLA4; also called huCTLA4
The experiment in a line: flow cytometry, CHO cells stably expressing CTLA4.

Another experiment addresses T2, human PD-L1 on CHO cells (human, UniProt Q9NZQ7 19-290).
T2 construct: whole, on cells; CHO cells stably expressing PD-L1; also called huPD-L1
Put plainly: flow cytometry, CHO cells stably expressing PD-L1.

The target in experiment [1] is T3, CD28 on Jurkat/IL2 reporter cells (human, UniProt P10747 19-220).
T3 construct: whole, on cells; Endogenous CD28 of Jurkat cells; also called Jurkats (CD28)
The experiment in a line: flow cytometry, Jurkat cells (CD28).

Experiment [2] addresses T4, human PD-L1 (full-length, expressed on CHO cells) (human, UniProt Q9NZQ7 19-290).
T4 construct: also called huPD-L1; CD274
The experiment in a line: flow cytometry, CHO cells expressing huPD-L1, PE anti-human Fc.

Experiment [3] concerns the target T4, human PD-L1 (full-length, expressed on …). The experiment in a line: flow cytometry MFI at 33.3 nM relative to WT CD80 ECD-Fc (R&D), CHO/huPD-L1 cells.
Experiment [4] has the same target. The experiment in a line: flow cytometry, MFI on CHO/huPD-L1 cells over MFI on Jurkat (CD28) cells, 33.3 nM.
Experiment [5] deals with T5, CD28 (endogenously expressed on Jurkat/IL2 reporter cells) (human, UniProt P10747 19-220).
T5 construct: Endogenous CD28 of Jurkat cells; also called human CD28
The experiment in a line: flow cytometry MFI at 33.3 nM relative to WT CD80 ECD-Fc (R&D), Jurkat cells.

The target in experiment [6] is T5, CD28 (endogenously expressed on …). The experiment in a line: flow cytometry, Jurkat/IL2 reporter cells (endogenous CD28), PE anti-human Fc.
Experiment [7] concerns the target T6, human CTLA4 (full-length, expressed on CHO cells) (human, UniProt P16410 36-223).
T6 construct: also called huCTLA4
Put plainly: flow cytometry, CHO cells expressing huCTLA4, PE anti-human Fc.

The target in experiment [8] is T7, human PD-L1 (human, UniProt Q9NZQ7 19-290).
T7 construct: also called huPD-L1; CD274
The experiment in a line: flow cytometry, CHO cells stably expressing PD-L1.

For a further experiment, the target named is human CD28 (human, UniProt P10747 19-220). The experiment in a line: flow cytometry, Jurkat cells (CD28).
Experiment [9] addresses T8, human CTLA-4 (human, UniProt P16410 36-223).
T8 construct: also called huCTLA4
The experiment in a line: flow cytometry, CHO cells stably expressing CTLA4.

Experiment [10] concerns the target T9, human PD-L1 (human, UniProt Q9NZQ7 19-290).
T9 construct: whole, on cells; CHO cells stably expressing huPD-L1; also called huPD-L1
The experiment in a line: flow cytometry, CHO cells stably expressing huPD-L1, 33.3 nM Fc fusion, PE anti-human Fc.

Experiment [11] deals with T10, human CTLA-4 (human, UniProt P16410 36-223).
T10 construct: whole, on cells; CHO cells stably expressing huCTLA4; also called huCTLA4
Put plainly: flow cytometry, CHO cells stably expressing huCTLA-4, 33.3 nM Fc fusion, PE anti-human Fc.

T1 sequence (P16410 36-223): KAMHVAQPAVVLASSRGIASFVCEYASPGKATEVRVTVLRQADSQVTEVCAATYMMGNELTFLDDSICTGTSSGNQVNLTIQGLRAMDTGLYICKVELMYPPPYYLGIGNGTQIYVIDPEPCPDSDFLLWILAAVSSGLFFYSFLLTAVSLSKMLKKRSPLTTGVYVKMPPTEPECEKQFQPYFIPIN
T2 sequence (Q9NZQ7 19-290): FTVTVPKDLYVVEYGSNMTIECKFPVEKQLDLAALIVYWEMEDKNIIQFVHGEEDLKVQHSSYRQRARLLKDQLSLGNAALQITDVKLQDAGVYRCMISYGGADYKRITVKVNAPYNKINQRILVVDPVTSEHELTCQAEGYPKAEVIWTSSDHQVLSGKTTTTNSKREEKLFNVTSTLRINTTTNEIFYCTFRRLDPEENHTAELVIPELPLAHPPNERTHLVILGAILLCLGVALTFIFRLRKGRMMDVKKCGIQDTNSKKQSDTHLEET
T4 sequence (Q9NZQ7 19-290): as above
T6 sequence (P16410 36-223): as the sequence (P16410 36-223) above

B1: variant CD80 IgV-Fc E35D/M47V/I61V/L85M (Fc fusion, not shown: a dimerising Fc or GST)
chain: VIHVTKEVKEVATLSCGHNVSVEELAQTRIYWQKDKKMVLTMMSGDVNIWPEYKNRTIFDVTNNLSIVILALRPSDEGTYECVVMKYEKDAFKREHLAEVTLSVKAD
As to B1, the results for the “MFI at 33.3 nM” value (with human CTLA4 on CHO cells; with human PD-L1 on CHO cells; in experiment [1]) were 28800 MFI, 3050 MFI and 274 MFI, respectively.

B2: variant CD80 IgV-Fc Q33K/E35D/D46V/L85Q (Fc fusion, not shown: a dimerising Fc or GST)
chain: VIHVTKEVKEVATLSCGHNVSVEELAQTRIYWKKDKKMVLTMMSGVMNIWPEYKNRTIFDITNNLSIVILALRPSDEGTYECVVQKYEKDAFKREHLAEVTLSVKAD
B2: the “MFI at 33.3 nM” value came to 26700 MFI in experiment [2] and 257 MFI in experiment [6]. In addition, the entries for the “Fold change to WT” value in experiment [3] and in experiment [5] were 3.36 fold and 0.03 fold, respectively. The “Ratio of PDL1:CD28” value in experiment [4] is 104 ratio.

B3: variant CD80 IgV-Fc A26E/E35D/M43I/M47L/L85Q/K86E/R94W (Fc fusion, not shown: a dimerising Fc or GST)
chain: VIHVTKEVKEVATLSCGHNVSVEELEQTRIYWQKDKKMVLTMISGDLNIWPEYKNRTIFDITNNLSIVILALRPSDEGTYECVVQEYEKDAFKWEHLAEVTLSVKAD
In the case of B3, the “MFI at 33.3 nM” value in [7] amounted to 2950 MFI; in experiment [6] it was 314 MFI.

B4: CD80 IgV-Fc V22D/E24D/E35D/M47L/V68M (Fc fusion, not shown: a dimerising Fc or GST)
chain: VIHVTKEVKEVATLSCGHNVSDEDLAQTRIYWQKDKKMVLTMMSGDLNIWPEYKNRTIFDITNNLSIMILALRPSDEGTYECVVLKYEKDAFKREHLAEVTLSVKAD
As to B4, the entries for the “MFI at 33.3 nM” value with human PD-L1 [8] and with human CD28 were 15400 MFI and 1250 MFI, respectively.

B5: variant CD80 IgV-Fc E35D/M47V/T62S/L85Q (Fc fusion, not shown: a dimerising Fc or GST)
chain: VIHVTKEVKEVATLSCGHNVSVEELAQTRIYWQKDKKMVLTMMSGDVNIWPEYKNRTIFDISNNLSIVILALRPSDEGTYECVVQKYEKDAFKREHLAEVTLSVKAD
Regarding B5, the entries for the “MFI at 33.3 nM” value (in the experiment with human CTLA4 on CHO cells; in [1]) were 31200 MFI and 99.4 MFI, respectively.

B6: CD80 IgV-Fc V22D/E24D/E35D/M47V/V68M (Fc fusion, not shown: a dimerising Fc or GST)
chain: VIHVTKEVKEVATLSCGHNVSDEDLAQTRIYWQKDKKMVLTMMSGDVNIWPEYKNRTIFDITNNLSIMILALRPSDEGTYECVVLKYEKDAFKREHLAEVTLSVKAD
For B6, the “MFI at 33.3 nM” value is 191 MFI with human CD28 and 16900 MFI with human CTLA-4 [9].

B7: variant CD80 IgV-Fc E35D/M43I/M47L/L85M (Fc fusion, not shown: a dimerising Fc or GST)
chain: VIHVTKEVKEVATLSCGHNVSVEELAQTRIYWQKDKKMVLTMISGDLNIWPEYKNRTIFDITNNLSIVILALRPSDEGTYECVVMKYEKDAFKREHLAEVTLSVKAD
Turning to B7, the “MFI at 33.3 nM” value with human CTLA4 on CHO cells turned out to be 24600 MFI; with human PD-L1 on CHO cells, 4880 MFI.

B8: variant CD80 IgV-Fc E35D/M47L/A71G (Fc fusion, not shown: a dimerising Fc or GST)
chain: VIHVTKEVKEVATLSCGHNVSVEELAQTRIYWQKDKKMVLTMMSGDLNIWPEYKNRTIFDITNNLSIVILGLRPSDEGTYECVVLKYEKDAFKREHLAEVTLSVKAD
Consider B8, for which the “MFI at 33.3 nM” value with human CTLA4 on CHO cells turned out to be 20600 MFI; in the experiment with human PD-L1 on CHO cells, 6640 MFI.

B9: variant CD80 IgV-Fc (inert) H18V/A26P/E35D/M47V/V68L/A71G (Fc fusion)
chain: VIHVTKEVKEVATLSCGVNVSVEELPQTRIYWQKDKKMVLTMMSGDVNIWPEYKNRTIFDITNNLSILILGLRPSDEGTYECVVLKYEKDAFKREHLAEVTLSVKAD
notes: not shown: inert human IgG1 Fc
For B9, the figures for the “MFI at 33.3 nM” value with human PD-L1 [10] and in the experiment with human CTLA-4 [11] were 55400 MFI and 13700 MFI, respectively.

B10: CD80 IgV-Fc S21P/E35D/K37E/D46E/M47I/V68M/R94L (Fc fusion, not shown: a dimerising Fc or GST)
chain: VIHVTKEVKEVATLSCGHNVPVEELAQTRIYWQKDKEMVLTMMSGEINIWPEYKNRTIFDITNNLSIMILALRPSDEGTYECVVLKYEKDAFKLEHLAEVTLSVKAD
Regarding B10, the “MFI at 33.3 nM” value in the experiment with human CD28 worked out at 284 MFI; with human CTLA-4 [9], 20100 MFI.

B11: variant CD80 IgV-Fc (inert) H18V/A26N/E35D/M47V/V68M/A71G (Fc fusion)
chain: VIHVTKEVKEVATLSCGVNVSVEELNQTRIYWQKDKKMVLTMMSGDVNIWPEYKNRTIFDITNNLSIMILGLRPSDEGTYECVVLKYEKDAFKREHLAEVTLSVKAD
notes: as for B9
For B11, the figures for the “MFI at 33.3 nM” value with human PD-L1 [10] and in the experiment with human CTLA-4 [11] were 68200 MFI and 22400 MFI, respectively.
